Measured values from paper PMC3869376, “Inflammation produces catecholamine resistance in obesity via activation of PDE3B by the protein kinases IKKε and TBK1” (eLife, 2013).

Molecular target: T1, HA-PDE3B (human) phosphorylated by co-expressed Flag-TBK1 (human, UniProt Q13370 1-1112, phosphorylated by co-expressed TBK1; serines 22, 299, 318, 381, 463, 467 and 503 found phosphorylated by LC-MS/MS (HA-PDE3B from Cos-1 cells))
T1 construct: Phosphodiesterase 3B (PDE3B), human cDNA (from Dr Morris Birnbaum); The phosphorylation sites were mapped in Cos-1 cells; also called phosphorylated PDE3B; the wild-type protein; source: HEK293T, transfected together with Flag-TBK1, in lysate; immunoprecipitated for the overlay
T1 sequence (Q13370 whole entry): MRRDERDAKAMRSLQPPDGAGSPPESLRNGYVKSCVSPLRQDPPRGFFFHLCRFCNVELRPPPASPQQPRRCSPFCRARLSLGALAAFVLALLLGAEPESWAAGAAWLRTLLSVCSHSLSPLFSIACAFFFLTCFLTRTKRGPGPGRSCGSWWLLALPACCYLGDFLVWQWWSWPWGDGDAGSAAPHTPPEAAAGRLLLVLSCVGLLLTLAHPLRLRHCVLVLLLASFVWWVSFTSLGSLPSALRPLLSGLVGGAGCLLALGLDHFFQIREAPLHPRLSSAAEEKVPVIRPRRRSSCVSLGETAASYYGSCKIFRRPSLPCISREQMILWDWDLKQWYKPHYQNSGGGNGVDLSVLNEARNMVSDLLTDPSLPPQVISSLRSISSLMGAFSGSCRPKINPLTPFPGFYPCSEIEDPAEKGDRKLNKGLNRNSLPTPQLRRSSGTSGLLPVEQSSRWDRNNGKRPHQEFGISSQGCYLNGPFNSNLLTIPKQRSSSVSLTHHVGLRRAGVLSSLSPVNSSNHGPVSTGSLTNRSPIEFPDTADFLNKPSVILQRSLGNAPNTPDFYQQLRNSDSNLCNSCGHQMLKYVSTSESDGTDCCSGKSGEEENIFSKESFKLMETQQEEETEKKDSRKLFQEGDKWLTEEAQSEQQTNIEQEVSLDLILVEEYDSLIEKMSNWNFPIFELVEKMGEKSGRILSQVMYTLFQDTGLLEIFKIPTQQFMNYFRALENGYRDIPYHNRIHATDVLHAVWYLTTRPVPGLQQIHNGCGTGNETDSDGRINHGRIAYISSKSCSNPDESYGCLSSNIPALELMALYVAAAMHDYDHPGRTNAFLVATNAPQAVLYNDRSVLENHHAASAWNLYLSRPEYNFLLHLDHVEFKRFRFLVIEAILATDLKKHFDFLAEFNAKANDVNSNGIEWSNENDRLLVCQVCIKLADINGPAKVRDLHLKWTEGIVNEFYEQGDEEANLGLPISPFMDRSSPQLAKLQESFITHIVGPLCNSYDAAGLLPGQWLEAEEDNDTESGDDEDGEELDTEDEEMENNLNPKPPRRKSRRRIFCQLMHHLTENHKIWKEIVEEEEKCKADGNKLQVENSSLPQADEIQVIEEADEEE
Test: pull-down; GST or GST-14-3-3β on glutathione beads incubated 1.5 hr at 4°C with cleared lysates of HEK293T cells co-expressing HA-PDE3B and Flag-TBK1 or K38A; PD buffer 15 mM Tris pH 7.5, 150 mM NaCl, 0.5% NP-40, 1 mM DTT
Details: one partner purified

binding result: binds
B1: GST-14-3-3β fusion protein (natural protein, human, UniProt P31946 1-246, looked up)
chain: MTMDKSELVQKAKLAEQAERYDDMAAAMKAVTEQGHELSNEERNLLSVAYKNVVGARRSSWRVISSIEQKTERNEKKQQMGKEYREKIEAELQDICNDVLELLDKYLIPNATQPESKVFYLKMKGDYFRYLSEVASGDNKQTTVSNSQQAYQEAFEISKKEMQPTHPIRLGLALNFSVFYYEILNSPEKACSLAKTAFDEAIAELDTLNEESYKDSTLIMQLLRDNLTLWTSENQGDEGDAGEGEN
modifications: DIG-labelled (DIG-NHS) in the overlay assay only
notes: 14-3-3β, human cDNA (from Dr Ken Inoki) subcloned into pGEX-4T-1; source: eluted with glutathione for the overlay
